PMC2680711
pKd: −log10 of the molar value.

Molecular target: Alexa-546-labeled H3-H4(E63C) (UniProt P61830)
Assay: other fluorescence titration

Vps75_(1−223) (Vps75 lacking the C-terminal acidic domain), sequence (P53853 1-223): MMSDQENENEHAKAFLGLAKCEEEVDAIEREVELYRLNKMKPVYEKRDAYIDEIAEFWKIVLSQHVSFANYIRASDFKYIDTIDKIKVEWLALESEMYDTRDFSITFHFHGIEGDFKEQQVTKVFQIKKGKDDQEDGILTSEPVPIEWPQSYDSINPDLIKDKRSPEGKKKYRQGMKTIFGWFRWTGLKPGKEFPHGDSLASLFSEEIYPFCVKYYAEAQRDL

pKd	Substance
6.82	Rtt109 (recombinant, purified) (from UniProt Q07794 1-436) (enzyme)
7.89	Vps75_(1−223) (Vps75 lacking the C-terminal acidic domain) (from UniProt P53853 1-223) (domain or fragment)
